The results in this text go back to patent US20180057551A1 (AMYLONIX, published 2018).

The assay has as its target T1, anti-ABD goat antibody (produced in-house).
T1 construct: also called Anti-ABD surface
As to the kind of experiment: SPR Biacore 2000, periplasmic sample over immobilised anti-ABD goat antibody. As to the method: A selection of Aβ peptide binding polypeptides was subjected to an analysis of the response against biotinylated hAβ₁₋₄₀ using a Biacore 2000 instrument (GE Healthcare). Biotinylated anti-ABD goat antibody (produced in-house) and N-terminally biotinylated hAβ₁₋₄₀ (AnaSpec cat. no. AS-24648) were immobilized in separate flow cells on a streptavidin coated chip (Biacore Sensor Chip SA, cat. no. BR100032) using HBS-EP as running buffer (0.01 M HEPES pH 7.4, 0.15 M NaCl, 3 mM EDTA, 0.005% v/v Surfactant P20, GE Healthcare, cat. no. BR100188). The ligand immobilization levels on the surfaces were approximately 2000 RU for the anti-ABD antibody and 225 RU for hAβ₁₋₄₀. One flow cell surface on the chip was used as blank during analyte injections. HBS-EP was used as running buffer and the flow rate was 25 μl/min. The analytes, i.e. periplasmic preparations of Aβ peptide binding polypeptides as described above, were each diluted 15× in HBS-EP buffer and injected for 10 min, followed by dissociation in running buffer for 5 min. After dissociation, the surfaces were regenerated with 2 pulses of 10 mM glycin pH 2.0. […]
The interactions of a subset of Z variants with anti-ABD goat antibody and hAβ₁₋₄₀ were analyzed in a Biacore instrument by injecting dilutions of periplasmic samples.
Background: SPR reads the build-up and loss of mass on a sensor chip optically.

B1: albumin binding domain GA3 from streptococcal Protein G (ABD), periplasmic control (other)
chain: LAEAKVLANRELDKYGVSDYYKNLINNAKTVEGVKALIDEILAALP
notes: periplasm containing ABD only; also called negative control; blank control
B1: the “Response RU” value is 19.8 RU.
